Measured values: patent publication US20160272937A1, “METHODS OF GENERATING INTERMEDIATE MESODERM CELLS FROM HUMAN PLURIPOTENT STEM CELLS” (THE BRIGHAM AND WOMEN'S HOSPITAL, INC., priority 2013, published 2016)

Legend:
Assay type in all cases: cell-based, human
CHIR-induced hPSCs [1] = experiment: Definitive endoderm differentiation of CHIR-induced hPSCs (SOX17/FOXA2 immunostaining)
Procedure: Mesendoderm differentiation—the media is changed to Advanced RPMI (A-RPMI, Invitrogen) supplemented with 1×L-glutamax and 1× penicillin/streptomycin and either CHIR99021 (CHIR, Stemgent), human Wnt3a (R&D systems), and/or human activin A (R&D systems) at the doses described. […] Hepatic differentiation—cells at the definitive endoderm stage are treated with A-RPMI+1×L-glu+1×P/S+1×B27 supplement (Invitrogen)+20 ng/mL BMP-4 (R&D systems)+10 ng/mL FGF2 (Invitrogen) for 5 days, then A-RPMI+1×L-glu+1×P/S+1×B27+10 ng/mL HGF for 5 days, then HCM Hepatocyte Culture Medium (Lonza) supplemented with 20 ng/mL Oncostatin M and 10 ng/mL HGF (Peprotech) for 5 days. Pancreatic differentiation—cells at the definitive endoderm stage are treated with DMEM/F12+2% FBS (Hyclone)+50 ng/mL FGF7 (R&D systems) for 2 days, then high-glucose DMEM (Mediatech)+1% B27+2 μM retinoic acid (Sigma)+0.25 μM KAAD cyclopamine (EMD Millipore)+100 ng/mL recombinant human Noggin (R&D systems) for 4 days, then high-glucose DMEM+1% B27+100 ng/mL Noggin+300 nM indolactam V (Stemgent)+1 μM ALK5 inhibitor II (Axxora) for 4 days. […]
Nuclei can be counterstained with DAPI (Sigma). […] Immunofluorescence is visualized using an inverted fluorescence microscope (Nikon Eclipse Ti, Tokyo, Japan). Quantification is performed by counting a minimum of five random fields at 10× magnification. […]

[2] = test system: hPSC-derived PAX2+LHX1+ cells; experiment: SIX2 induction in PAX2+LHX1+ cells (cap mesenchyme differentiation, immunofluorescence); conditions: activin A 10 ng/ml added on day 3, 5 additional days
CHIR-induced hPSCs [3] = experiment: Growth factor screen for PAX2 induction in CHIR-induced mesendodermal cells (immunostaining); conditions: CHIR 24 hours then increasing doses of factor, day 4
Procedure: For immunofluorescence studies, cultures are washed once with PBS (Invitrogen) and fixed in 4% paraformaldehyde for 15 min at room temperature (RT). Fixed cells are then washed three times in PBS and incubated in blocking buffer (0.3% Triton X-100 (Fisher Scientific) and 5% normal donkey serum (EMD Millipore) in PBS) for 1 hour at RT.
The cells are then incubated with primary antibody overnight at 4° C. or for 2 hours at RT in antibody dilution buffer (0.3% Triton X-100 and 1% BSA (Roche) in PBS). Cells are then washed three times in PBS and incubated with Alexa Fluor 488-, 555-, or 647-conjugated secondary antibodies (1:500) (Molecular Probes) in antibody dilution buffer for 1 hour at RT. For immunostaining with Biotinylated Lotus Tetragonolobus Lectin (LTL, Vector Labs), a Streptavidin/Biotin Blocking Kit (Vector Labs) and Alexa Fluor 488- or 647-conjugated Streptavidin (Molecular Probes) were used according to manufacturer's instructions.
Nuclei can be counterstained with DAPI (Sigma). […] Immunofluorescence is visualized using an inverted fluorescence microscope (Nikon Eclipse Ti, Tokyo, Japan). Quantification is performed by counting a minimum of five random fields at 10× magnification.
PAX2 is selected since it is an early marker of IM, and, unlike the markers OSR1 or LHX1 which are also expressed in the adjacent lateral plate mesoderm, PAX2 expression is restricted in mesoderm to the IM.

B1: activin A: human activin A (R&D systems) (protein, UniProt P08476 311-426, looked up)
Inhibin beta A chain: GLECDGKVNICCKKQFFVSFKDIGWNDWIIAPSGYHANYCEGECPSHIAGTSGSSLSFHSTVINHYRMRGHSPFANLKSCCVPTKLRPMSMLYYDDGQNIIKKDIQNMIVEECGCS
modifications: Inhibin beta A chain
number of SOX17+ cells (CHIR-induced hPSCs [1]; activin A added after 48 hours of CHIR treatment, 4 days of differentiation): markedly reduced
efficiency of SOX17+FOXA2+ definitive endoderm generation (CHIR-induced hPSCs [1]; high doses of activin A after 24 hours of CHIR treatment, 2-3 days of subsequent differentiation): greater than 95%
SIX2+ cells by immunofluorescence [2]: small populations of SIX2+ cells
PAX2 expression (CHIR-induced hPSCs [3]): no PAX2 expression
